Experimental data published in patent US20260167721A1 (ABLEXIS, published 2026).
Where a chain is given by its changes, count along the chain named.

B1: CD3 × CD33-BspAb125 (bispecific antibody)
chain 1: not shown
chain 2: EVQLVQSGAEVKKPGSSVKVSCKASGYTITDSNIHWVRQAPGQSLEWIGYIYPYNGGTDYNQKFKNRATLTVDNPTNTAYMELSSLRSEDTAFYYCVNGNPWLAYWGQGTLVTVSSASTKGPSVFPLAPSSKSTSGGTAALGCLVKDYFPEPVTVSWNSGALTSGVHTFPAVLQSSGLYSLSSVVTVPSSSLGTQTYICNVNHKPSNTKVDKRVEPKSCDKTHTCPPCPAPEFEGGPSVFLFPPKPKDTLMISRTPEVTCVVVDVSHEDPEVKFNWYVDGVEVHNAKTKPREEQYNSTYRVVSVLTVLHQDWLNGKEYKCKVSNKALPASIEKTISKAKGQPREPQVCTLPPSREEMTKNQVSLSCAVKGFYPSDIAVEWESNGQPENNYKTTPPVLDSDGSFFLVSKLTVDKSRWQQGNVFSCSVMHEALHNRFTQKSLSLSPGK
chain 3: DIQLTQSPSTLSASVGDRVTITCRASESLDNYGIRFLTWFQQKPGKAPKLLMYAASNQGSGVPSRFSGSGSGTEFTLTISSLQPDDFATYYCQQTKEVPWSFGQGTKVEVKRTVAAPSVFIFPPSDEQLKSGTASVVCLLNNFYPREAKVQWKVDNALQSGNSQESVTEQDSKDSTYSLSSTLTLSKADYEKHKVYACEVTHQGLSSPVTKSFNRGEC
B2: CD3 × CD33-BspAb69 (bispecific antibody)
chain 1: EVQLVESGGGLVKPGGSLRLSCAASGFTFSYYSMNWVRQAPGKCLEWVSSISRSTTYIYYADSVKGRFTISRDNAKNSLYLQMNSLRAEDTAVYYCARDGKGAIFLDYWGQGTLVTVSSGGGGSGGGGSGGGGSGGGGSSYELTQPPSVSVSPGQTARITCSGDALPKKYAYWYQQKSGQAPVLVIYEDSKRPSGIPERFSGSSSGTMATLTISGAQVEDEADYYCYSTDSSGNHRVFGCGTKLTVLDKTHTCPPCPAPEFEGGPSVFLFPPKPKDTLMISRTPEVTCVVVDVSHEDPEVKFNWYVDGVEVHNAKTKPREEQYNSTYRVVSVLTVLHQDWLNGKEYKCKVSNKALPASIEKTISKAKGQPREPQVYTLPPCREEMTKNQVSLWCLVKGFYPSDIAVEWESNGQPENNYKTTPPVLDSDGSFFLYSKLTVDKSRWQQGNVFSCSVMHEALHNHYTQKSLSLSPGK
chain 2: B1 chain 2
chain 3: B1 chain 3
B3: CD3 × CD33-BspAb68 (bispecific antibody)
scFv-Fc: EVQLVESGGGLVKPGGSLRLSCSASGFTFSTYTMNWVRQAPGKCLEWVSSISKSSSYIYYTDSVKGRFTISRDNAKNSLYLQMNSLRAEDTAVYYCARERRTLAFDIWGQGTMVTVSSGGGGSGGGGSGGGGSGGGGSNFMLTQPHSVSESPGKTVTISCTRSSGSIASNYVQWYQQRPGSSPTTVIYEDNQRSSGVPDRFSGSIDSSSNSASLTISGLKTEDEADYYCQSYDRSNRVFGCGTKLTVLGGGGSDKTHTCPPCPAPEFEGGPSVFLFPPKPKDTLMISRTPEVTCVVVDVSHEDPEVKFNWYVDGVEVHNAKTKPREEQYNSTYRVVSVLTVLHQDWLNGKEYKCKVSNKALPASIEKTISKAKGQPREPQVYTLPPCREEMTKNQVSLWCLVKGFYPSDIAVEWESNGQPENNYKTTPPVLDSDGSFFLYSKLTVDKSRWQQGNVFSCSVMHEALHNHYTQKSLSLSPGK
heavy: B1 chain 2
light: B1 chain 3
notes: KiH heterodimer
B4: ABL-CD3-63 (antibody, V domains shown)
VH: QVQLQESGPGLVKPSETLSLTCTVSGGSISSYYWSWIRQPAGKGLEWIGRIYTSGSTKYNPSLKSRVTMSVDTSKNQFSLKLISVTAADTAVYFCARERIRDLYFDYWGQGTLVTVSS
VL: NFMLTQPHSVSESPGKTVTISCTRTSGSIASNYVQWYQQRPGSSPTTVIYEDNQRPSGVPDRFSGSIDSSSNSASLTISGLKTEDEAAYYCQSYDRSNRVFGGGTKLTVL
notes: Chimeric hybridoma mAb: human V, CH1, upper hinge; mouse middle hinge, CH2, CH3
B5: ABL-CD3-60 (antibody, V domains shown)
VH: EVQLVESGGGLVKPGGSLRLSCAASGFTFSIYSMNWVRQAPGKGLEWVSSISSGSSYIYYADSVKGRFTISRDNAKSSLFLQMNSLRAEDTAVYYCAREKRELLFDYWGQGTLVTVSS
VL: B4 VL with T25S, S69R, A88D, R96S
notes: as for B4
B6: ABL-CD3-46 (antibody, V domains shown)
VH: EVQLVESGGGLVKPGGSLRLSCSASGFTFSTYTMNWVRQAPGKGLDWVSSISKSSTYIYYADSVKGRFTISRDNAKNSLYLQMNSLRAEDTAVYYCARERRTLAFDIWGQGTMVTVSS
VL: B4 VL with T25S, A88D, S93C
notes: as for B4
B7: ABL-CD3-49 (antibody, V domains shown)
VH: B6 VH with D46E, T56S, A61T
VL: B4 VL with T25S, P56S, A88D, S93C
notes: as for B4
B8: ABL-CD3-43 (antibody, V domains shown)
VH: EVQLVQSGAEVKKPGESLKISCKGSEYSFTTYWIAWVRQMPGKGLEWMGIIYPGDSDTTYSPSFQGQVTISADKSISIAFLQWSSLKASDTAMYYCARQGELDAFDIWGQGTMVTVSS
VL: QSALTQPASVSGSPGQSITISCTGTSSDVGSYNLVSWYQQHPGKAPKLMIYEDIRRPSGVSNRFSASKSGDTASLTISGLQAEDEADYYCCSYAGSTTFAIFGGGTKLTVL
notes: as for B4
B9: ABL-CD3-59 (antibody, V domains shown)
VH: EVQLVESGGGLVKPGGSLRLSCTASGFTLSSYSMNWVRQAPGKGLEWVSSLSRSSNYIYYAVSVKGRFTISRDNAKNSLYLQMNSLRAEDTAVYYCARERWELLYFDYWGQGTLVTVSS
VL: B4 VL with T25S, K82Q, A88D, R96N, N98I
notes: as for B4
B10: ABL-CD3-41 (antibody, V domains shown)
VH: EVQLVESGGGLVKPGGSLRLSCAASGFTFSSYSMNWVRQAPGKGLEWVSSVNSRGSYIYYADSVKGRFTISRDNAKDSLYLQMNSLRADDTAVYYCARDRRELLLDYWGQGTLVTVSS
VL: SYELTQPPSVSVSPGQTARITCSGDALPKKYAYWYQQKSGQAPVLVIYEDSKRPSGIPERFSGSSSGTMATLTISGAQVEDEADYYCYSTDSSGNHCWVFGGGTKLTVL
notes: as for B4

Molecular target: T1, human CD3 (TCR/CD3 complex on the cell surface) (human, UniProt P07766 23-207; P04234 22-171; P09693 23-182)
T1 construct: whole, on cells; Native CD3 on human Pan-T cells or Jurkat wild-type cells; also called CD3 on Pan-T cells; CD3 on Jurkat WT cells
T1 sequence (P07766 23-207, chain 1 of 3): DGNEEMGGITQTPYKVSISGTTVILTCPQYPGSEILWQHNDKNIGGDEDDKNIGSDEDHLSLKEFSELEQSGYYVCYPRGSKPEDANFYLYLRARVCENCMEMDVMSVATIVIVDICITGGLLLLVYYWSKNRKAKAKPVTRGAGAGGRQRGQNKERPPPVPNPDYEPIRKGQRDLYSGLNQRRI
T1 sequence (P04234 22-171, chain 2 of 3): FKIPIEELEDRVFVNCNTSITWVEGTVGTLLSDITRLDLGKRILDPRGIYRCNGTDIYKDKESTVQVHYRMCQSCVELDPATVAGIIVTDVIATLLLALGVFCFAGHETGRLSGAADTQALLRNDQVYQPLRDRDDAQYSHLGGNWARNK
T1 sequence (P09693 23-182, chain 3 of 3): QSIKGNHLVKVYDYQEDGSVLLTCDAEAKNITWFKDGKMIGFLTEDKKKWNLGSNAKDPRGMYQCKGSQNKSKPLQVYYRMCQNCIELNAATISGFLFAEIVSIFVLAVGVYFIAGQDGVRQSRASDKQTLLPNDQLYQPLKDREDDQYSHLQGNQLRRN
Test: flow cytometry, Pan-T cells, 1 ug/mL

How did the “% Positive” value turn out when B1 was run?
The value was 42.2%.

What about the gMFI of the same binder?
Its gMFI is 6020 gMFI.

What does the source list for B2?
% Positive: 99.7%; gMFI: 95300 gMFI

B3 was tested. Which “% Positive” value did it give?
The value was 100%.

What about the gMFI of the same binder?
The gMFI was 539000 gMFI.

Molecular target: T1, human CD3 (TCR/CD3 complex on the cell …)
Test: flow cytometry, Pan-T cells, 10 ug/mL

With B1 as the binder, how does the “% Positive” value read?
The value was 95.4%.

What about the gMFI of the same binder?
Its gMFI is 28700 gMFI.

With B2 as the binder, how does the “% Positive” value read?
Its value is 99.8%.

What about the gMFI of the same binder?
Its gMFI is 281000 gMFI.

For B3, which “% Positive” value is on record?
The value was 99.9%.

And the gMFI?
The gMFI was 601000 gMFI.

Molecular target: T1, human CD3 (TCR/CD3 complex on the cell …)
Test: flow cytometry, Jurkat WT cells, 1 ug/mL

For B1, which gMFI is on record?
The gMFI was 3680 gMFI.

With B2 as the binder, how does the gMFI read?
The gMFI was 16500 gMFI.

How did the gMFI turn out when B3 was run?
The gMFI was 58000 gMFI.

Molecular target: T1, human CD3 (TCR/CD3 complex on the cell …)
Test: flow cytometry, Jurkat WT cells, 10 ug/mL

B1 was tested. Which gMFI did it give?
Its gMFI is 13700 gMFI.

For B2, which gMFI is on record?
Its gMFI is 25800 gMFI.

B3 was tested. Which gMFI did it give?
Its gMFI is 63600 gMFI.

Molecular target: T1, human CD3 (TCR/CD3 complex on the cell …)
Test: flow cytometry, Jurkat WT gMFI over Jurkat KO gMFI, 1 ug/mL

Which “Jurkat WT/KO (Fold)” value does the source give for B1 here?
Its value is 1.5 fold.

B2 was tested. Which “Jurkat WT/KO (Fold)” value did it give?
Its value is 6.3 fold.

Which “Jurkat WT/KO (Fold)” value does the source give for B3 here?
Its value is 12.9 fold.

Molecular target: T2, recombinant human CD3 epsilon/delta heterodimer (human, UniProt P07766 23-126; P04234 22-105)
T2 construct: Recombinant protein in solution (200-50 nM) in the Octet assay; also called hCD3 E/D; human CD3E/D
T2 sequence (P07766 23-126, stated change not applied, chain 1 of 2): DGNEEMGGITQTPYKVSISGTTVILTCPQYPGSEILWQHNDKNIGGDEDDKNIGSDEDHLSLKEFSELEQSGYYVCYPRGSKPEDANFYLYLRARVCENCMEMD
T2 sequence (P04234 22-105, stated change not applied, chain 2 of 2): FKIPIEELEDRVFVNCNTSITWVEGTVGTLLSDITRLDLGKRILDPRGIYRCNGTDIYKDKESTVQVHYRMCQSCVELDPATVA
Test: Octet BLI, mAb on FAB2G sensor, hCD3 E/D 200-50 nM; R^2 0.99

What does the source list for B4?
Kd: 11.5 nM; Response: 0.89; koff: 0.00145 s⁻¹; kon: 127000 M⁻¹ s⁻¹

Which results are given for B5?
Kd: 231 nM; Response: 0.1; koff: 0.0962 s⁻¹; kon: 417000 M⁻¹ s⁻¹

With B6 as the binder, how does the Kd read?
Its Kd is 9.48 nM.

What about the Response of the same binder?
The Response was 1.02.

What about the koff of the same binder?
Its koff is 0.00171 s⁻¹.

And the kon?
Its kon is 180000 M⁻¹ s⁻¹.

Which results are given for B7?
Kd: 6.52 nM; Response: 0.93; koff: 0.00131 s⁻¹; kon: 200000 M⁻¹ s⁻¹

What does the source list for B8?
Kd: 6.2 nM; Response: 0.62; koff: 0.000754 s⁻¹; kon: 122000 M⁻¹ s⁻¹

Molecular target: T2, recombinant human CD3 epsilon/delta …
Test: Octet BLI, mAb on FAB2G sensor, hCD3 E/D 200-50 nM; R^2 1.00

How did the Kd turn out when B9 was run?
The Kd was 12.7 nM.

And the Response?
Its Response is 0.81.

And the koff?
The koff was 0.00105 s⁻¹.

And the kon?
Its kon is 83100 M⁻¹ s⁻¹.

With B10 as the binder, how does the Kd read?
Its Kd is 85 nM.

And the Response?
Its Response is 0.34.

And the koff?
The koff was 0.0395 s⁻¹.

And the kon?
Its kon is 464000 M⁻¹ s⁻¹.

Molecular target: T3, recombinant human CD3 epsilon/gamma heterodimer (human, UniProt P07766 23-126; P09693 23-116)
T3 construct: Recombinant protein in solution (200-50 nM) in the Octet assay; also called hCD3 E/G
T3 sequence (P07766 23-126, chain 1 of 2): as the sequence (P07766 23-126, stated change not applied, chain 1 of 2) above
T3 sequence (P09693 23-116, chain 2 of 2): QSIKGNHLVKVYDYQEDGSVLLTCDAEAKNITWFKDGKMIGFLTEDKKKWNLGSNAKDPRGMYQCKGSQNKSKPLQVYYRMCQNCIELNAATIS
Test: Octet BLI, mAb on FAB2G sensor, hCD3 E/G 200-50 nM; R^2 0.98

Which results are given for B4?
Kd: 90.4 nM; Response: 0.34; koff: 0.0182 s⁻¹; kon: 202000 M⁻¹ s⁻¹

Which results are given for B5?
Kd: 90.7 nM; Response: 0.07; koff: 0.0583 s⁻¹; kon: 642000 M⁻¹ s⁻¹

With B6 as the binder, how does the Kd read?
The Kd was 16.3 nM.

What about the Response of the same binder?
The Response was 0.88.

And the koff?
Its koff is 0.00333 s⁻¹.

What about the kon of the same binder?
Its kon is 204000 M⁻¹ s⁻¹.

Which Kd does the source give for B7 here?
Its Kd is 11.4 nM.

And the Response?
The Response was 0.82.

What about the koff of the same binder?
Its koff is 0.00253 s⁻¹.

What about the kon of the same binder?
The kon was 223000 M⁻¹ s⁻¹.

How did the Kd turn out when B8 was run?
Its Kd is 6.94 nM.

What about the Response of the same binder?
The Response was 0.62.

And the koff?
Its koff is 0.00104 s⁻¹.

And the kon?
The kon was 150000 M⁻¹ s⁻¹.

Molecular target: T3, recombinant human CD3 epsilon/gamma …
Test: Octet BLI, mAb on FAB2G sensor, hCD3 E/G 200-50 nM; R^2 0.99

Which Kd does the source give for B9 here?
The Kd was 43.3 nM.

And the Response?
Its Response is 0.58.

And the koff?
Its koff is 0.00487 s⁻¹.

What about the kon of the same binder?
Its kon is 113000 M⁻¹ s⁻¹.

What does the source list for B10?
Kd: 295 nM; Response: 0.1; koff: 0.25 s⁻¹; kon: 846000 M⁻¹ s⁻¹

Molecular target: T1, human CD3 (TCR/CD3 complex on the cell …)
Test: flow cytometry, Jurkat WT gMFI over Jurkat KO gMFI, 10 ug/mL

B1 was tested. Which “Jurkat WT/KO (Fold)” value did it give?
The value was 5.3 fold.

B2 was tested. Which “Jurkat WT/KO (Fold)” value did it give?
Its value is 8.7 fold.

With B3 as the binder, how does the “Jurkat WT/KO (Fold)” value read?
Its value is 13.6 fold.
